These results are taken from the supplement of paper PMC10567573.

The labels stand for the following.
B1: KCNK9 (parent)
chain: DVPDLQSVCSCTCYRSQDYGGRSV
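Note: lentivirally expressed fusions sorted by FACS into six bins by GFP to DsRed ratio, PSI derived from sequencing read proportions per bin multiplied by bin number.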

In this data set the parent is B1. The experiment in a line: protein stability index of a GFP-peptide fusion (GPS, HEK-293T) (PSI 1-6); higher = more stable. The note with it: c terminus: a fixed tail appended.
DVPDLQFVCSCTCYRSQDYGGRSV [S7F]: the protein stability index worked out at 2.32. For DVPDLQHVCSCTCYRSQDYGGRSV [S7H] the value was 1.92; for DVPDLQIVCSCTCYRSQDYGGRSV [S7I], 2.29. With DVPDLQMVCSCTCYRSQDYGGRSV [S7M], the protein stability index was 1.84. In the case of DVPDLYSVCSCTCYRSQDYGGRSV [Q6Y] it was 4.08; in that of DVPDLWSVCSCTCYRSQDYGGRSV [Q6W], 2.57. In the case of DVPDLQSVCSWTCYRSQDYGGRSV [C11W], the protein stability index amounted to 2.59. For DVPDLQSVCSMTCYRSQDYGGRSV [C11M] the value was 2.13. For DVPDLQSVCSVTCYRSQDYGGRSV [C11V] the value was 2.46; for DVPDLQSVCSQTCYRSQDYGGRSV [C11Q], 2.59; for DVPDLQSVCSHTCYRSQDYGGRSV [C11H], 2.02.

Turning to DVPDLQSVCSKTCYRSQDYGGRSV [C11K], the protein stability index came to 3.05. In the case of DVPDLQSVCSLTCYRSQDYGGRSV [C11L] it was 2.52; in that of DVPDLQSVCSITCYRSQDYGGRSV [C11I], 2.39; in that of DVPDLQSVCSRTCYRSQDYGGRSV [C11R], 2.34. Take DVPDLQSVCSYTCYRSQDYGGRSV [C11Y]: the protein stability index was determined as 3.6. In the case of DVPDLQSVCSFTCYRSQDYGGRSV [C11F] it was 2.06; in that of DVPDLQSVCSNTCYRSQDYGGRSV [C11N], 3.21; in that of DVPDLQSVCSPTCYRSQDYGGRSV [C11P], 3.8. In the case of DVPDLQSVCSETCYRSQDYGGRSV [C11E], the protein stability index came to 4.65. In the case of DVPDLQSVCSTTCYRSQDYGGRSV [C11T], the protein stability index amounted to 2.81.

Regarding DVPDLQSVCSDTCYRSQDYGGRSV [C11D], the protein stability index is 4.15. Turning to DVPDLQSVCSSTCYRSQDYGGRSV [C11S], the protein stability index came to 3.3.

With DVPDLQSVCSCPCYRSQDYGGRSV [T12P], the protein stability index was 2.05. For the variant DVPDLQSVCSCQCYRSQDYGGRSV [T12Q], the protein stability index turned out to be 1.65. In the case of DVPDLQSVCSCSCYRSQDYGGRSV [T12S] it was 1.31; in that of DVPDLQSVCSCWCYRSQDYGGRSV [T12W], 2.72. In the case of DVPDLQSVCSCFCYRSQDYGGRSV [T12F] it was 2.76. For DVPDLQSVCSCDCYRSQDYGGRSV [T12D] the value was 2.79. As for DVPDLQSVCSCVCYRSQDYGGRSV [T12V], the protein stability index is 2.47.

For DVPDLQSVCSCYCYRSQDYGGRSV [T12Y], the protein stability index came out at 1.94.

On to DVPDLQSVCSCMCYRSQDYGGRSV [T12M], for which the protein stability index worked out at 1.25.

In the case of DVPDLQSVCSCHCYRSQDYGGRSV [T12H], the protein stability index worked out at 3.13. For DVPDLQSVCSCCCYRSQDYGGRSV [T12C] the value was 1.21; for DVPDLQSVCSCECYRSQDYGGRSV [T12E], 2.4. Consider DVPDLQSVCSCKCYRSQDYGGRSV [T12K], for which the protein stability index came to 1.58. For the variant DVPDLQSVCSCNCYRSQDYGGRSV [T12N], the protein stability index turned out to be 1.62.

On to DVPDLQSVCSCLCYRSQDYGGRSV [T12L], for which the protein stability index worked out at 1.3. For DVPDLQSVCSCICYRSQDYGGRSV [T12I] the value was 1.57; for DVPDLQSVCSCACYRSQDYGGRSV [T12A], 1.78; for DVPDLQSVCSCGCYRSQDYGGRSV [T12G], 1.52.

For the variant DVPDLQSVCSCTCFRSQDYGGRSV [Y14F], the protein stability index came to 2.1. For DVPDLQSVCSCTCQRSQDYGGRSV [Y14Q] the value was 1.53; for DVPDLQSVCSCTCNRSQDYGGRSV [Y14N], 2.23; for DVPDLQSVCSCTCLRSQDYGGRSV [Y14L], 1.47.

DVPDLQSVCSCTCIRSQDYGGRSV [Y14I]: the protein stability index amounted to 1.83. Turning to DVPDLQSVCSCTCKRSQDYGGRSV [Y14K], the protein stability index was found to be 2.27.

As to DVPDLQSVCSCTCWRSQDYGGRSV [Y14W], the protein stability index worked out at 3.24. In the case of DVPDLQSVCSCTCTRSQDYGGRSV [Y14T] it was 1.5; in that of DVPDLQSVCSCTCDRSQDYGGRSV [Y14D], 1.92; in that of DVPDLQSVCSCTCHRSQDYGGRSV [Y14H], 2.55. For DVPDLQSVCSCTCRRSQDYGGRSV [Y14R] the value was 2.37; for DVPDLQSVCSCTCSRSQDYGGRSV [Y14S], 2.29; for DVPDLQSVCSCTCPRSQDYGGRSV [Y14P], 2.71. For the variant DVPDLQSVCSCTCMRSQDYGGRSV [Y14M], the protein stability index was determined as 3.61.

On to DVPDLQSVCSCTCARSQDYGGRSV [Y14A], for which the protein stability index was determined as 1.91. In the case of DVPDLQSVCSCTCGRSQDYGGRSV [Y14G] it was 2.42. For DVPDLQSVCSCTCCRSQDYGGRSV [Y14C], the protein stability index came to 1.75. For DVPDLQSVCSCTCVRSQDYGGRSV [Y14V] the value was 2.38; for DVPDLQSVCSCTKYRSQDYGGRSV [C13K], 1.82.

Turning to DVPDLQSVCSCTQYRSQDYGGRSV [C13Q], the protein stability index came out at 2.69. As to DVPDLQSVCSCTVYRSQDYGGRSV [C13V], the protein stability index stood at 2.31.

As for DVPDLQSVCSCTSYRSQDYGGRSV [C13S], the protein stability index came to 2.79. As to DVPDLQSVCSCTYYRSQDYGGRSV [C13Y], the protein stability index was determined as 1.94. For DVPDLQSVCSCTFYRSQDYGGRSV [C13F] the value was 1.14; for DVPDLQSVCSCTRYRSQDYGGRSV [C13R], 2.19.

With DVPDLQSVCSCTPYRSQDYGGRSV [C13P], the protein stability index was determined as 2.81. On to DVPDLQSVCSCTIYRSQDYGGRSV [C13I], for which the protein stability index came to 2.85.

In the case of DVPDLQSVCSCTDYRSQDYGGRSV [C13D], the protein stability index worked out at 2.12. For DVPDLQSVCSCTLYRSQDYGGRSV [C13L] the value was 1.97. In the case of DVPDLQSVCSCTAYRSQDYGGRSV [C13A] it was 2.28; in that of DVPDLQSVCSCTWYRSQDYGGRSV [C13W], 1.75. In the case of DVPDLQSVCSCTTYRSQDYGGRSV [C13T] it was 3; in that of DVPDLQSVCSCTMYRSQDYGGRSV [C13M], 1.73.

With DVPDLQSVCSCTEYRSQDYGGRSV [C13E], the protein stability index was 2.85. In the case of DVPDLQSVCSCTGYRSQDYGGRSV [C13G] it was 3.14; in that of DVPDLQSVCSCTNYRSQDYGGRSV [C13N], 2.53; in that of DVPDLQSVLSCTCYRSQDYGGRSV [C9L], 2.16.

DVPDLQSVSSCTCYRSQDYGGRSV [C9S]: the protein stability index was 3.05. As to DVPDLQSVHSCTCYRSQDYGGRSV [C9H], the protein stability index came to 1.71. Take DVPDLQSVDSCTCYRSQDYGGRSV [C9D]: the protein stability index is 3.26. DVPDLQSVYSCTCYRSQDYGGRSV [C9Y]: the protein stability index came out at 1.82. In the case of DVPDLQSVGSCTCYRSQDYGGRSV [C9G] it was 1.75; in that of DVPDLQSVMSCTCYRSQDYGGRSV [C9M], 2.06; in that of DVPDLQSVKSCTCYRSQDYGGRSV [C9K], 2.29.

For the variant DVPDLQSVPSCTCYRSQDYGGRSV [C9P], the protein stability index worked out at 1.67. For DVPDLQSVTSCTCYRSQDYGGRSV [C9T] the value was 1.89; for DVPDLQSVQSCTCYRSQDYGGRSV [C9Q], 2.03; for DVPDLQSVVSCTCYRSQDYGGRSV [C9V], 2.18. In the case of DVPDLQSVASCTCYRSQDYGGRSV [C9A] it was 2.7; in that of DVPDLQSVESCTCYRSQDYGGRSV [C9E], 2.37; in that of DVPDLQSVFSCTCYRSQDYGGRSV [C9F], 2.01.

In the case of DVPDLQSVISCTCYRSQDYGGRSV [C9I], the protein stability index is 2.38.

Regarding DVPDLQSVNSCTCYRSQDYGGRSV [C9N], the protein stability index worked out at 2.66.
